Our source for the protease stability score values is the NTF2 design screens of Basanta et al. (2020).

The data set is described as follows: protease stability score; higher = more stable; yeast display proteolysis, trypsin and chymotrypsin.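 Further: relative to predicted unfolded state with 0 unfolded-like and 1 meaning tenfold more protease.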
“SEEDDDSREVLELFVRLMVTGDFHELAELLDPNVRTHINGKERVGREQMIKILKRLFDEWGVDRVIVHVKHIDVQGEKAHMDGTLIYGDKMQKSHVTLIYVNGRLERIHIELN” came in with a protease stability score of 1.13. To “SEVEKHLHNVIELYIRALRTGDEERLRKLLDPHVRVRIGDKHLHGREDWWQHVTRYDHESVHDLKIDHVRVVGNKIEMIITHDIIIIVNGVNLRHSIETEVHARKVDGVWYLTELHHG” belongs 0.075; to “SDEQEMLTRIIEIFFHAVLTGDEETLIEMLDPHARLDVNGVTVIGMEKIWHHVEEMRFKDTKIHDIDVQGNKMKVDGRLDGQINGREHRFRTIIIIEKINGKWLVKRIIIL”, 2.44; to “DERNDRAREYVELWEDALRTGDEHILMELADPHTRIEIGEFEIIGREEIMRFMNEIRVHVRESRIKRVTEIDGVLFADIHVRREFRFDGRSKEVRTDVIIIFNKFDGKWLLESVHVK”, -0.01. To “DELKRDADHAVELLHRVIHTGDEDTFVELIDPHVRLDFNGRELIGWEEVRKLMRDLGWEQIHYEIEDIKVYNGQVEIHSRVNINGRTHQSHYHIEKVNGRWILRHVEYE” belongs 1.37; to “SHKEEEFRRLFELTIRMFLTGDEDVMSKLMDPNVRLQVHVNGKNIEIHGWENLIKTFIDLGIDHWEFKRSDIIGDFVMLDGRIEFNGRRSNTELRFLIIDGRVKSIIIKIE”, 2.05; to “DDEEEFIRKLFEDFYRAFLTGDWHELFELMDPNTRTEINGVHFHGRHIISEYLVTHIERVDHVSITLTRLDKIGDYLIIDSHLRQDVNGKKIHVRLHMHAHKIDGRWKIHRFEFE”, 1.34.

Regarding “SEYEHEAREVMHRLIHATETGDEEQILRMIDPHVRIDINGVELIGWRHLEEYLRRIDVVYIRIDARRVDVQGDKIRVDTEMDVEVDYDGRKFRHKEKTIIFMHKVDGRWLITSFHVL”, the protease stability score is 2.7. The value for “SEDDDLAKDFVSLMLHEFRTGNEESMSKLVDPHVRLHIGDKTYVGRENVSRILKKELRDYGIDHMHIDHLRVQGDKVHIHTTYRQGDKEMETHFVILKVDGKWFMHEIEIR” was 1.88; that for “DDLEKIVLRMLNLWLKSILTGDEEFEEHYADPNVRYEINGVELHGRERFSQWLTDLRRKFKNIRIEIRVHHTEAQGDKMRSEEELIIDFEGRQINREVRIDMKVIDGRIKEVKVHII” was 1.42; that for “NEDEEEARRWLEFFIKLYETGDEHMLEKMIDPDTRSYIDGKEFVGREEIRKLLRHLRIEHIHVKRFRAVNGKIDFDTHIVGEFNGRRKNTDVHIRATKIDGQWYLHEVDWK” was 1.64. The value for “DEEEKALDHAWRRFLETLKTGDERKFHELLDPNVQIDWNGRKLHGMHLIVDIIRRVKNLKSHEIHIRHITVIGDKVEFRSDIRGTVDGVDTEIHTRYLFLKIDGQWVLHHEEIV” was 2.22; that for “DEDEHHIRTALEYLRHATETGDEELMSEMADPDVRVHVNGVELHGMESYEKWLHDVLREIRIRHVHLEDSKVIGDFVRLDLRVHTEVNGRHFRHQTILISFKYNGQWRIKSVIWR” was 1.37. “SDEEHELREATEILLHLFLTGDEESLDNLADPNVRVDYNGVKYHGREVLSFWLHEELKHARIHIRIRSLHLVGEFLHIQGEVRIEQGEFRRRHDMHWIIEKVDGRWIIRYVLIK” had a protease stability score of 1.56. To “DEDDELYKRVFELIEHDNHTGNEKSHLELADPHARLLYDGKLVIGRELLLEWMRRLGIDVIRHMDFKRFRIQGDKIEMDVRVHGEVNGRHIDTDTHLIARKVNGRWLLEEIRIK” belongs 0.937; to “DEHEEFAERNLKLLTELEETGNEDEIRKQADPHVRIEIGDKDIVGMHLWAKWVTHVKDRFDHIEVRLHRVHVQGDKILMHTQLILTQGNYRREFRTEVIIRKINGRWVLHSMHFH”, 1.42. In turn, “TDKEEETKENAEKLTKHILTGNWEEFFNLADPNVRMHIQQGDKRINRHGREDAYHEYKDLERNLGIDHMHIKDIRVQGDWVHIHLEYRYGDKRFEVEIVLLIVDGRLTEVNVTIR” showed a protease stability score of 1.09.

Regarding “REDVEDFKRFIELEVHAHETGDEDLLRKLLDPHVRVIIDGVTIVGWKALRDLLERFDHYTIHHMHIEDLRIQGDKIIVDLRLDLIFNYNGRHLRVDSHARIIMIKYNGRWYNHSIEFE”, the protease stability score was 2.12. The value for “HEEEELLERVIRLMVENIITGNEDQLNNLVDPHAKIDIDGVILHGRDWVRDLHERVDHMEVRITDWRMIGDKVQTDSRLTNRFNGKEYRRDVRFHAHKINGRWINQTIEIR” was 0.722; that for “SEEEQLALEIARRLVRSILTGDEHEIHRLMDPHVRTNWNGQELVGREEWDRFNHEMRIHELRIREFDVEVFNGRVESRFRTETRMTFDGREVNEETKLIVILDKVDGKWHLRHVEFRIH” was 0.651.

Turning to “SDEEELYEILLEIELKSAMTGDWRNLKDLLDPDTRIHFNGVEIHGREHAEKHLKRYDVDKIEDVRYRDMRFQGDKARVHGEVRILLQFDGRRMEIDTTIQVINYKVNGVWIIESLHFE”, the protease stability score was found to be 1.24. To “DEDEKHMEEWLRLLKHALVTGDFEMILRNLDPHYRNDINGREFHGWEFFDKLMKEIRVKDSHLTHIEIYDGKAISETNVDLHVDGKDVLLDTRVVIDKYNGRWIIRHVSID” belongs 1.23.

As for “SDKDHLFKWAVRHLLEFTQTGNWEHMEHYLDPNVRLNFHIDGVSIERHGMEFLKKLLRDLSEDAGLDNINVQLHSFEIQGEKVNIHLKETFNGRHHETHNVVFKFDGRWKLTKSEVFFL”, the protease stability score came to 0.913. To “SEEDELNHRISHLLTRMRRTGDEDTWHRLADPNMRLEINGVISHGREEALRILSEVDDILGIDRFSVHLDRYTWDGNYIHNDMTFEINGRDLRVHVDSLVINGRMHHERVRVE” belongs -0.516; to “DDEDEEVKLIIEEELHLARTGDFERLLELHDPDVRIIFDGREWHGREALRWLYRHLGIDRIDLHFEDVRVINGRVEMDVTENINGRKIKSRIIARKYDGRWINEQVDIK”, 2.28; to “EEDKETAEHFSRVLHENWETGDEHRELLYMDPNVRTDFNGVDAVGREEFHKLVHHLLTHIRMRSLHIRKVHIQGEYLHIEGELNTEVNGREVVLEMRITSLKINGRWITHSMHFR”, 0.304. To “DEEKEKAKEFLHEWFRSLETGDEDLLTKLLDPNARMDINGQRFVGRHDIQRFISELREKIPNMQIDFHDQEMTDVNGVVQVDMRVDIHYGDKSSHHRLHVYVLKINGRWINKHIHVRTK” belongs 1.16; to “DEDTKVVEEILRLLVEIWKTGDEHTWKRLLDPHARMDVDGRELHGREEIARHVKEETEKLGANVHNHVEIHHMEIIGNKVIIDGTVDGIVNGRITRIRVEVFWLVFDGVIKEEEHRVL”, 0.955; to “SEEEKHTREMSEMLLRTWETGDEEEYEHLADPHVRIDFNGKHYHGREEAVKLLRWLIEELGADHRTIHREEVQGEKVRLFTRVNVNGRDLRLIIRFVVINGRLTIMKIEIHTE”, 1.26. Consider “SEDRQIAEQIVEDLSTSTVTGDWRLILELLDPDTRIVVDGVDLHGREEFLRFFERIDHMRARRTRLSDFRSYGDKVEADVDIKMEYIVDGRNITERFKERFIIIKVNGRWIVKEWRLK”, for which the protease stability score came to 2.61.

Consider “DDVEKLTREWFEKYLHTIQTGDEHSFERLADPNVRLHAENREYHGMEVISERLREEQDKFKGLRITHFHITHIINNEDEMYVDGRIVVEWNGQKEILTVHLIAFKVNGKWILKRYVKK”, for which the protease stability score was 1.78.

Turning to “DKEFEDVIRMAEHEMKLMETGDWKTHEHLADPNYRVDINGREHIGWDHFVRWLFHMRIHRIEIKEVRVQGEKATLRLKVDGEQGDKRFKTDIEFSLLIVDGRIKEIHIILH”, the protease stability score is 1.36. To “SEDERDAKMFIDLLNEAMHTGDEQIIKDLVDPHVKIFVGDKIYIGWERYRHMLEEIRIHRWDSEIKRYRVFDGRLEVEGVLHFDVEVNGKRREISTHVELHFDKFDGRWIVREISVH” belongs 1.76; to “TEEERIRRHAVELWVRSMRTGDEETSVDLADPRTKADINGVEIHGMEIVSKFFREMLEQYDVREFHIHSIDVIGDKVVTDMELILRVGDFENRTHIEFIVHKFDGKWRIEEIRLH”, 0.934; to “DEDRERSEEIAKLILRSWLTGDERLLEELFDPHARVHINGKEFHGMEKFTEFSRHIRMDRVIIHDVKLIGDKMHIEQEIIITFDGRHLHVRSIIIVLKVNGQWVSRSLEIH”, 1.16. To “SELEKELREFIKKVVEALATGDEDLLRELFDPHVRVKIGEWHFIGMEEMLRLIREIRMEIEEVRITELQIQGDKIHMETRLHGRLHIGDKERQTHYSTRVNVRKIDGQWITKSWEVH” belongs 2.04.

Take “SEEKKALDILLKTLIHTHQTGDEHTVRELVDPHVRIDFNGQELHGWEDARRFIVEMRLKHVDLRRVHHQGEKVELDGEVDGTYNGQEFHSKLHIVMRKVNGRWVFSQIEIK”: the protease stability score stood at 1.17. To “DEDEKLLEKIAREFFEALKTGDEDWLTELADPHVKLDVGEWDTHGMEEIKNVLKILLHELGFKHRELHDMDIVNGVNVIDVIIRINGKERKVTIIIVTIDGRIKSIHHRVN” belongs 2.15; to “DEEEEMVLEMAYLFIHALHTGDEDMIRHLADPNMKVDINGQEHHGRDMSNEWWRREIDQIKNVRVDIDIDELHVIDGVAYVRTTVRYHFDGRTIVYFTTFDLIIVNGKIKSVKWEVE”, 1.83.

As to “SEDEEIAHHVVNLIMKIIRTGDEDNFKQLFDPHTRFTVGDKHHIGRETVIEFFRRWEEFYPNIQLELRLRDVKAYGDKVHVETEVIIRVGDKDLRFETTVYILKYNGRWFLKQEQFR”, the protease stability score was 0.769. “DEEDHDLELFLQIMTHDMRTGNEDNLTRLLDPHVRLEWNGKEFHGRDVMRFWREELGHDNVEVHMRLKDRELQGDKLIIHGEIIHRYNGREIRLDIHFIAHKVDGKWIARVRNIQ” gave a protease stability score of 1.64.

Sequence “DDETDRSEKVAQMFVDLLTTGDWERLRHLMDPHVRMDINGQESHGRENVFRFFQKIRERLGLDRFHIEVTHIDVQGDKALWHGTLNINGQEHEVIIRIDVVDGRWHEVRMEVR” came in with a protease stability score of 2.62. In turn, “SDEEHIVQVALKNYIKAVMTGDEHLFNELMDPNTRNDINGVIYHGMEEWVKSVEELGIERFTIHEVYEHDFRVYNGQVDIHVRVDREVNGRRINDEVEIVAYKVNGRWQLRSLIFR” registered a protease stability score of 1.39. The value for “SEKEERALELIKRFWESELTGNEDWLRHLADPDYLYILLIDGKEHNFHGMETWYEKINRIKGVQIDHLEIRHENVIGDKVEIDGRMDITVNGKRIDKRVELQYSVVDGRFKSVKITNI” was 0.809; that for “SEHDESIHRHFEKIHESIRTGDEELLRKFLDPNTLLVNEDEKVVGWEQWVEQVRRHLTELGAKHVSFSLHDRRFFDGRLHLDSRVIIEIGDKRLSLETEVINLKFNGRWIITSLTSS” was 1.14; that for “TEDERDMHEAMERHLQDLRTGNWEDVHRQVDPNVRLVFNGKEVHGREEYVEHTVRLAERADHIELRIRHIDTQGDKLRVEGELIIRQGDKTFIHEVELLFLKVNGRWIIHSFEIK” was 1.55. On to “SHEQEEARFFLDVLIEWFLTGDEEHMMKNADPNVRIEVGDKHLHGRELTYEWLKELRFKHHHVHRVTSQGDKVYYDVKVDGHINGVDRHSLEIIITLKFDGRWILKSIHVR”, for which the protease stability score worked out at 1.95.
